Test: yeast display, Sf9 membrane polyspecificity reagent, FACS + sequencing; frameworks hold sequencing errors
Summary of the method: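 A nanobody's polyreactivity label depends on the gate it was sorted from. Yeast display cells were stained with 10% biotinylated, detergent-solubilized Sf9 membrane reagent for 1 hour at 4 °C, enriched on streptavidin microbeads and sorted by FACS. The low and high (top ~1%) gates were set on anti-HA fluorescence for expression and streptavidin fluorescence for reagent binding.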

| Sequence | polyreactivity (PSR sort gate) |
| --- | --- |
| QVQLVESGGGLVQAGGSLRLSCAASGSTFRYNAMGWYRQAPGKERELVAGISYRGGTTYYADSVKGRFTISRDNAKNTVYLQMNSLKPEDTAVYYCAAAASSPGGWFYYWGQGTQVTVSS | high polyreactivity |
| QVQLVESGGGLVQAGGSLRLSCAASGSTFRYYAMGWYRQAPGKERELVAAISGSGGRTYYADSVKGRFTISRDNAKNTVYLQMNSLKPEDTAVYYCAASRYQFYWGQGTQVTVSS | high polyreactivity |
| QVQLVESGGGLVQAGGSLRLSCAASGSTFRYYAMGWYRQAPGKERELVAAISRSGGRTYYADSVKGRYTISRDYAKKTVYLQMNSLKPEDTAVYYCAVDIVSIRGYTYGYWGQGTQVTVSS | high polyreactivity |
| QVQLVESGGGLVQAGGSLRLSCAASGSTFRYYAMGWYRQAPGKERELVAAISWGAGSTYYADSVKGRFTISRDNAKNTVYLQMNSLKPEDTAVYYCNTLQITGWYDYWGQGTQVTVSS | high polyreactivity |
| QVQLVESGGGLVQAGGSLRLSCAASGSTFRYYAMGWYRQAPGKERELVAAITFDGGTTSYADSVKGRFTISRDNAKNTVYLQMNSLKPEDTAVYYCAREGRTYWSKSISPYWRYGYWGQGTQVTVSS | high polyreactivity |
| QVQLVESGGGLVQAGGSLRLSCAASGSTFRYYAMGWYRQAPGKERELVAAITTSGSRTYYADSVKGRFTISRDNAKNTVYLQMNSLKPEDTAVYYCAKDGWRYSQSLDWYRFGYWGQGTQVTVSS | high polyreactivity |
| QVQLVESGGGLVQAGGSLRLSCAASGSTFRYYAMGWYRQAPGKERELVARISWRGGSTYYADSVKGRFTISRDNAKNTVYLQMNRLKPEDTAVYYCAAVRWVRYRTSAYEYWGQGTLVTVSS | high polyreactivity |
| QVQLVESGGGLVQAGGSLRLSCAASGSTFRYYAMGWYRQAPGKVRELVAAITSSGTSTYYADSVTGRFTISRDNAKNTVYLQKNSLKPEDTAVYYCAAPPVYKWVSSRYDYWGQGTQVTVSS | low polyreactivity |
| QVQLVESGGGLVQAGGSLRLSCAASGSTFSANTMGWYRPAPGKERELLAAISSSGVGTRYADSVKGRFTISRDTAKNNVYLQMKSLKPEDTAVYYCAADYRPTVITRNDYWGQGTQVTVSS | low polyreactivity |
| QVQLVESGGGLVQAGGSLRLSCAASGSTFSAYAMGWYRQAPGKERELVAAITRSGGSTYYADSVKGRFTISRDNAKNTVYLQMNSLKPEDTAVYYCAVRGYLLYYPPYKYEYWGQGTQVTVSS | high polyreactivity |
| QVQLVESGGGLVQAGGSLRLSCAASGSTFSDYAMGWYRQAPGKERELVAGITGGGGTYYADSVKGRFTISRDNAKNTVYLQMNSLKPEDTAVYYCAAGRRHGFGYWGQGTQVTVSS | low polyreactivity |
| QVQLVESGGGLVQAGGSLRLSCAASGSTFSEYAMGWYRQAPGKERELVAAISETGGRTYYADSVKGRFTISRDNAKNTVYLQMNSLKPEDTAVYYCAVDHLTRSGDGEYWGQGTQVTVSS | high polyreactivity |
| QVQLVESGGGLVQAGGSLRLSCAASGSTFSFNAMGWYRQAPGKERELVAAITGGDGTNYADSVKGRFTISRDNAKNTVYLQMNILKPEDTAVYYCAAYQWGSTEDYWFTYGYWGQGTQVTVSS | low polyreactivity |
| QVQLVESGGGLVQAGGSLRLSCAASGSTFSFNDMGWYRQAPGKERELVADISWSGDTTYADSVKGRFTISRDNAKNTVYLQMNSLKPEDTAVYYCNAEGFSIAFYANWVVQWEFDFWGQGTQVSVSS | high polyreactivity |
| QVQLVESGGGLVQAGGSLRLSCAASGSTFSFYAMGWDRQAPGKERELVAAIRAGTRTYYADSVKGRFTISRDNAKNTVYLQMNSLKPEDTAVYYCAATRRRYPYYYWGQGTLVTVSS | high polyreactivity |
| QVQLVESGGGLVQAGGSLRLSCAASGSTFSFYDMGWYRQAPGKETELVDAITGSGGTTYYADSVKGRFTISRDNAKNTVYLKMNSLIPEDTAVYFCAADSLESYPDYEYDYWGQGTQVTVSS | low polyreactivity |
